# T1: SASPase_28 (Homo sapiens, UniProt Q53RT3)
# T1 construct: made in house
# T1 sequence (Q53RT3 85-343): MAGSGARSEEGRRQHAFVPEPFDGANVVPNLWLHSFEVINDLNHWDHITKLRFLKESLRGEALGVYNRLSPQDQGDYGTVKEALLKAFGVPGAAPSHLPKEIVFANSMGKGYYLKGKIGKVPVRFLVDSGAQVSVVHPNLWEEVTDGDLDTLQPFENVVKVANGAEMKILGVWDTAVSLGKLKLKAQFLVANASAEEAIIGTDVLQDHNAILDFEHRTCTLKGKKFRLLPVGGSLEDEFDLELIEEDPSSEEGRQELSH
# T2: SASPase (Homo sapiens, UniProt Q53RT3)
# T2 construct: expressed in transfected cells; host or cells: double-hybrid system
# T2 sequence (Q53RT3 1-259 isoform Q53RT3-2): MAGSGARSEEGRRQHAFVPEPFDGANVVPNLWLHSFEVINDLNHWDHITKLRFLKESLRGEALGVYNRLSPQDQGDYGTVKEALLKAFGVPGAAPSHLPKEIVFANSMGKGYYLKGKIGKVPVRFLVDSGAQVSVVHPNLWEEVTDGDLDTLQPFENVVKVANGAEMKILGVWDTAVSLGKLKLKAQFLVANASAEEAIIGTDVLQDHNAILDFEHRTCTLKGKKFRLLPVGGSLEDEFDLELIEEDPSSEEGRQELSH
# T3: filaggrin-2 (FLG2) (Homo sapiens, UniProt Q5D862)
# T3 construct: expressed in transfected cells; host or cells: double-hybrid system
# T3 sequence (Q5D862 2-213): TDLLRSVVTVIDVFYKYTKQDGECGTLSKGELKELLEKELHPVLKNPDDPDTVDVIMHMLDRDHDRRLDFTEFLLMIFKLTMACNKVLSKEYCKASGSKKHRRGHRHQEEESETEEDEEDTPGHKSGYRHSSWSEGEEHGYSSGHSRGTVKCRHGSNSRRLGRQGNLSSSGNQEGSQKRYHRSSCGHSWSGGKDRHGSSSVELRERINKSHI
# Experiments:
# SASPase_28 = biological target: T1, SASPase_28; test: SASPase proteolytic activity assay with Dabcyl-QIDRIMEK-Edans substrate; type: biochemical; details: for ability to increase the catalytic activity of SASPase: same enzymatic assay, FLG2-Hs replaced with the synthesized peptide
# Procedure: A recombinant 28 kDa SASPase (SASPase_28) constituted of the amino acids extending from positions 85 to 343 of the sequence represented by the reference Q53RT3 (Uniprot/Swissprot Ref.) was prepared as described by Bernard et al., (J. Invest. Dermatol., 2005, 125: 278-287).
# SASPase_28 at 0.025 mg/ml is in the presence of a colorimetric substrate, Dabcyl-QIDRIMEK-Edans, at 0.01 mM (Production Jerini Peptide Ref. D17: JPT Peptide Technologies GmbH) in a PBS buffer.
# The hydrolysis of the colorimetric substrate by the activated SASPase results in the separation of the EDANS fluorochrome and of its deactivator (or quencher) Dabcyl, and in an increase in the EDANS fluorescence.
# The fluorescent signal is measured at λex 340 nm/λem 490 nm. The fluorescence is read every 10 minutes for 1 h 30 min, at 37° C., with a SPECTRAMAX M5e (Molecular Devices).
# The previous enzymatic assay was repeated with FLG2-Hs being replaced with each of the peptides thus prepared.
# SASPase = biological target: T2, SASPase; test: double-hybrid interaction of filaggrin-2 fragments with SASPase; type: binding; details: N-terminal S100 domain of filaggrin-2, amino acids 2-95
# Procedure: The interaction with a SASPase was found using, as bait, the filaggrin-2 fragment identified as interacting with the SASPase_28 and SASPase_37 sequences, and corresponding to amino acids 2-213 of the Genbank sequence: gi:62122916.
# The sequence was fused to the DNA-binding domain, LexA, according to the orientation N-LexA-FLG22-213-C.
# (§1) The prey sequences were fused to the Ga14 transcription-activating domain.
# (§2) Supplementary experiments were carried out in order to reduce and identify the size of the sequences responsible for this interaction between SASPase_28 and filaggrin-2.
# filaggrin-2 (FLG2) = biological target: T3, filaggrin-2 (FLG2); test: double-hybrid interaction of SASPase_28 fragments with filaggrin-2; type: binding; details: N-terminal fragment of SASPase_28, amino acids 11-86
# Procedure: A first study using the “double-hybrid” technique was carried out using the whole 28 kDa SASPase protein in its wild-type form (SASPase_28, GENBANK Ref. gi16553767) and in its form mutated at the catalytic aspartic acid (SASPase_28D128A), and also the 37 kDa SASPase form (SASPase_37), in its whole form (GENBANK Ref. gi189409121), and a fragment corresponding to the N-terminal end of 84 amino acids of the protein relative to the sequence of SASPase_28 ([…]).
# The SASPase sequences were fused to a DNA-binding domain, LexA, according to the orientation N-LexA-SASPase-C, so as to keep the C-terminal end of the SASPase free, with the exception of the SASPase_28N84 sequence which is fused to the LexA domain according to the orientation N-SASPase_28N84-LexA-C.
# as §1, §2
Molecule,ability to increase the catalytic activity of SASPase (SASPase_28),other results
"SEQ ID NO: 14: peptide of 8 to 20 amino acids synthesized from positions 71 to 90 of FLG2, SEQ ID NO: 9 (TEFLLMIFKLTMACNK; /mol_type=“protein” /organism=“Homo sapiens”; listed as Homo sapiens)",particularly significant ability to increase,
"SEQ ID NO: 15: peptide of 8 to 20 amino acids synthesized from positions 71 to 90 of FLG2, SEQ ID NO: 9 (TEFLLMIF; /mol_type=“protein” /organism=“Homo sapiens”; listed as Homo sapiens)",particularly significant ability to increase,
"SEQ ID NO: 10: peptide of 8 to 20 amino acids synthesized from positions 71 to 90 of FLG2, SEQ ID NO: 9 (FTEFLLMIFKLTMACNKVLS; /mol_type=“protein” /organism=“Homo sapiens”; listed as Homo sapiens)",particularly significant ability to increase,
"SEQ ID NO: 12: peptide of 8 to 20 amino acids synthesized from positions 71 to 90 of FLG2, SEQ ID NO: 9 (LMIFKLTMACNKVLS; /mol_type=“protein” /organism=“Homo sapiens”; listed as Homo sapiens)",particularly significant ability to increase,
"SEQ ID NO: 13: peptide of 8 to 20 amino acids synthesized from positions 71 to 90 of FLG2, SEQ ID NO: 9 (LMIFKLTMACNKV; /mol_type=“protein” /organism=“Homo sapiens”; listed as Homo sapiens)",particularly significant ability to increase,
"SEQ ID NO: 11: peptide of 8 to 20 amino acids synthesized from positions 71 to 90 of FLG2, SEQ ID NO: 9 (EFLLMIFKLTMACNK; /mol_type=“protein” /organism=“Homo sapiens”; listed as Homo sapiens)",particularly significant ability to increase,
"SEQ ID NO: 9: amino acid sequence extending from positions 2 to 95 of filaggrin-2 Q5D862 (N-terminal S100 domain) (protein, listed as Homo sapiens, /mol_type=“protein” /organism=“Homo sapiens”) TDLLRSVVTVIDVFYKYTKQDGECGTLSKGELKELLEKELHPVLKNPDDPDTVDVIMHMLDRDHDRRLDFTEFLLMIFKLTMACNKVLSKEYCKA",,interaction with SASPase (SASPase): involved in the interaction with SASPase
"SEQ ID NO: 16: amino acid sequence extending from positions 97 to 173 of the Q53RT3 sequence of SASPase (protein, listed as Homo sapiens, /mol_type=“protein” /organism=“Homo sapiens”) RQHAFVPEPFDGANVVPNLWLHSFEVINDLNHWDHITKLRFLKESLRGEALGVYNRLSPQDQGDYGTVKEALLKAFG",,interaction with FLG2 (filaggrin-2 (FLG2)): sufficient for the interaction with FLG2
"FLG2-Hs: recombinant filaggrin-2, positions 2 to 213 of Q5D862, fused to a Thioredoxin-His-S.Tag affinity label (protein, left off: large carriers) TDLLRSVVTVIDVFYKYTKQDGECGTLSKGELKELLEKELHPVLKNPDDPDTVDVIMHMLDRDHDRRLDFTEFLLMIFKLTMACNKVLSKEYCKASGSKKHRRGHRHQEEESETEEDEEDTPGHKSGYRHSSWSEGEEHGYSSGHSRGTVKCRHGSNSRRLGRQGNLSSSGNQEGSQKRYHRSSCGHSWSGGKDRHGSSSVELRERINKSHI",,"enzymatic activity of SASPase (SASPase_28; SASPase_28 0.025 mg/ml, substrate 0.01 mM, PBS, 37° C., FLG2-Hs at 0.01 to 10 times the SASPase concentration): significantly increased"
